One molecule from patent US20120087916A1, “ANTI-ICAM-1 ANTIBODY, USES AND METHODS” (priority 2009, published 2012) can be followed below.

Entries after “also recorded” stand apart in the source; their conditions may differ.

One data set deals with ICAM-1 (Homo sapiens, UniProt P05362). The data set can be described thus: Binding of BI-AB to ICAM-1. The source says: BI-AB is a fully human immunoglobulin G subtype 1 (IgG1) monoclonal antibody expressed in Chinese Hamster Ovarian (CHO) cells. The BI-AB antibody has a theoretical molecular weight of approximately 144 kDa based on the predicted amino acid sequence. Mass spectrometry, peptide mapping and SDS-PAGE will determine molecular mass and primary and secondary structures. The biological activity is quantified using an ELISA assay, which quantitatively measures the binding of the BI-AB to ICAM-1.
Chain of ICAM-1 (P05362 28-532): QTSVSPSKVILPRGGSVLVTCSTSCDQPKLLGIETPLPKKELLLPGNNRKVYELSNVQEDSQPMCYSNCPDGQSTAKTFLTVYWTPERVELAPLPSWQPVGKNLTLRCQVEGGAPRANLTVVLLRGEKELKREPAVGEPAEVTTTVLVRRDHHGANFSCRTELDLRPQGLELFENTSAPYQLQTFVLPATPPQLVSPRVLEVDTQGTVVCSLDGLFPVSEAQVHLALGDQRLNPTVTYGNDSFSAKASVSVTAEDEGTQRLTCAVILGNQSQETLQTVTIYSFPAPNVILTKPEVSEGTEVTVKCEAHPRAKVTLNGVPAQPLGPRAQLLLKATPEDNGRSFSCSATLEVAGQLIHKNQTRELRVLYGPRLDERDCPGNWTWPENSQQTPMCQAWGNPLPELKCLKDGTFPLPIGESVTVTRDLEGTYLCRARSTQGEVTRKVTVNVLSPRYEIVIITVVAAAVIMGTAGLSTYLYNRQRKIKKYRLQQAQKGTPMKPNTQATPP

Data set [1] can be described thus: BI-AB serum trough levels by ELISA in the ARH-77/SCID tumour model. It counts as in vivo, SCID mice. The conditions noted are these: corresponds to 0.004 mg/kg dose; from fitted five parameter log-log curve. On the procedure: (§1) FIG. 5: Calculation of MABEL: determination of BI-AB IC10 value using in vivo pharmacology assay and in vitro correlation with binding. • (A) Tumour cells were injected subcutaneously into the left flank of SCID mice (n=8 per group). Mice received twice-weekly intraperitoneal injections with BI-AB at a range of 20 to 0.002 mg/kg (until control group had to be sacrificed). […] IC10=concentration at which there is 10% inhibition; ELISA=enzyme-linked immunosorbent assay; MABEL=minimum anticipated biological effect level. • (D) ARH-77myeloma cells were injected subcutaneously into the left flank of SCID mice (n=8 per group). Mice received twice-weekly intravenous injections of BI-AB at 0.002-20 mg/kg until control group had to be sacrificed. Blood samples were collected at termination and analyzed by ELISA to determine BI-AB serum trough levels. Trough BI-AB serum concentrations were plotted as a function of anti-tumor activity and fitted using five parameter log-log curve and XLfit software (IDBS, Guildford, United Kingdom).
Mean BI-AB serum trough concentrations of different mouse dose groups were determined by ELISA analysis of blood samples collected at different time-points during the course of in vivo experimentation. […]
In general terms: ELISA stands for enzyme-linked immunosorbent assay.

The target in data set [2] is T1, ICAM-1 epitopes on ARH-77 myeloma cells (Homo sapiens, UniProt P05362).
T1 construct: endogenous in cells; host or cells: ARH-77 myeloma cells
T1 sequence (P05362 28-532): as above
The data set can be described thus: Receptor occupancy / binding in vitro using human tumour cells. On the procedure:
as §1
Receptor occupancy has been examined in vitro using human tumour cells and the BI-AB level corresponding to binding saturation has been identified. It is assumed that at this concentration, ICAM-1 epitopes on cells of the vascular compartment should be saturated, and any side effects related to the physiological function of ICAM-1 are expected to be […]. […]

A further data set deals with B-cell lymphoma. The data set is described as follows: SCID/B-cell lymphoma tumour xenograft models. It counts as in vivo, SCID mice. The conditions noted are these: prophylactic and established models; data not shown.
Data set [3] has as its system human multiple myeloma tumour cells. The data set is described as follows: Disseminated tumour model (advanced experimental multiple myeloma), intravenous tumour cell inoculation. It counts as in vivo, SCID mice. As for the experimental part:
SCID mice were irradiated 5 days before intravenous tumour cell inoculation. Animals received intravenous injections with antibody at 2 mg/kg or bortezomib (Velcade) at 0.5 mg/kg on Days 7, 10, 14, and 17 (as indicated by arrows in graph). There were 8 mice per treatment group. Statistical significance was calculated using Log-rank Graphpad Prism software. Significance was determined at *p<0.05, **p<0.01, and ***p<0.001.
BI-AB anti-myeloma activity has additionally been investigated in a disseminated tumour model (a well-established experimental model of human multiple myeloma) at an independent contract research organization. […] After 190 days, when the experiment was terminated, 25% of BI-AB-treated mice were still alive.

A short description of data set [4]: Pharmacokinetics in the cynomolgus monkey, escalation dose toxicity study. The format is in vivo, cynomolgus monkeys. The conditions noted are these: 1-100 mg/kg. The source says: • Table 1: BI-AB levels associated 10, 50, and 90% anti-tumour activity correlated with levels of receptor binding. • a—determined in the most sensitive setting in the ARH-77/SCID in vivo tumour model, i.e., early antibody administration. • b—determined in the advanced ARH-77/SCID in vivo tumour model (mice carrying established tumours) • Table 2: Single dose pharmacokinetics of BI-AB following single IV bolus injection • Table 3: Pharmacokinetics of BI-AB following single escalating IV bolus injection The pharmacokinetics of BI-AB was investigated at dose levels of 1, 2, 8, 20, 50, and 100 mg/kg in the escalation dose toxicity study in cynomolgus monkeys. Samples for plasma analysis were taken after all dose levels. […] Cmax were generally obtained at the first sampling time of 0.5 hours post-dose. However at 100 mg/kg the Cmax was reached 8 hours post-dose. Serum concentrations declined in a generally bi-phasic manner with an elimination time ranging from 69 to 264 hours. […] There was some carry-over of the compound between treatments due to the long half-life of BI-AB.
The pharmacokinetics of BI-AB was investigated at dose levels of 1, 2, 8, 20, 50, and 100 mg/kg in the escalation dose toxicity study in cynomolgus monkeys. Samples for plasma analysis were taken after all dose levels.
Cmax were generally obtained at the first sampling time of 0.5 hours post-dose. However at 100 mg/kg the Cmax was reached 8 hours post-dose. Serum concentrations declined in a generally bi-phasic manner with an elimination time ranging from 69 to 264 hours. […] There was some carry-over of the compound between treatments due to the long half-life of BI-AB.

Data set [5] has as its system NCI-H929, EJM, RPMI-8226 myeloma cells. The data set is described as follows: SCID xenografts of CD20-negative ICAM-1-positive myeloma cell lines. It counts as in vivo, SCID mice. The conditions noted are these: CD20-negative ICAM-1-positive lines, 2 mg/kg twice-weekly intraperitoneal from Day 1. As for the experimental part:
(§2) Antibody treatment with 2 mg/kg BI-AB or control IgG1 was started at Day 1 and was continued on a twice-weekly intraperitoneal dosing regimen. Mice were sacrificed when tumour sizes reached the ethical limit. […] Statistical significance was calculated relative to control antibody treatment using Student t test. Statistical significance was considered for *p<0.05, **p <0.01, and ***p<0.001. ICAM-1-intercellular adhesion molecule 1; SCID=severe combined immunodeficiency

In the next data set the test system is OPM-2 myeloma cells. The data set can be described thus: SCID xenograft of ICAM-1-negative myeloma cell line. It counts as in vivo, SCID mice. The conditions noted are these: ICAM-1-negative OPM-2; 2 mg/kg twice-weekly intraperitoneal from Day 1. As for the experimental part:
as §2

Another data set deals with ARH-77 myeloma cells. The data set is described as follows: SCID/ARH-77 myeloma xenograft model (early and established subcutaneous tumours). The format is in vivo, SCID mice. As for the experimental part:
There were 8 to 10 animals per treatment group. • A and B: Early tumour model; treatment started 1 day after myeloma cell inoculation and continued until tumour volumes reached the ethical limit. (A) Tumour volume as a function of antibody dose. (B) Kaplan-Meier survival graph as a function of antibody dose. • (C) Established xenograft model; treatment with antibodies started when tumours reached a volume of approximately 100 mm^3. […] Statistical significance was calculated relative to control antibody treatment using Student t test (tumour volume) or the log-rank test (mouse survival) using Graphpad Prism software. Statistical significance was considered for *p<0.05, **p<0.01, and ***p<0.001. Graphs illustrate representative experiments out of several performed.
Blood samples were collected at termination and analyzed by ELISA to determine BI-AB serum trough levels. Trough BI-AB serum concentrations were plotted as a function of anti-tumor activity and fitted using five parameter log-log curve and XLfit software (IDBS, Guildford, United Kingdom).

Data set [6] is described as follows: Pharmacokinetics in the rat, single IV bolus injection. It counts as in vivo. From the text: A pharmacokinetic (PK) study of BI-AB in the rat has been performed. In this study, the doses of the antibody tested were in such excess in relation to the target antigen concentration that any binding to the target antigen would not be of significant importance for the PK profile. This fact serves as the rationale for performing a PK study in a species where the antibody will not bind to the target antigen. The pharmacokinetics of BI-AB in the rat has been investigated following a single IV bolus injection at dose levels of 0.5, 2.5 and 10 mg/kg.

Setting [7] is: single IV bolus 0.5, 2.5 and 10 mg/kg.

B1: BI-AB: fully human, high-affinity IgG1 mAb specific for ICAM-1 generated from the n-CoDeR human antibody fragment library (antibody, V domains shown)
VH: EVQLLESGGGLVQPGGSLRLSCAASGFTFSNAWMSWVRQAPGKGLEWVAFIWYDGSNKYYADSVKGRFTISRDNSKNTLYLQMNSLRAEDTAVYYCARYSGWYFDYWGQGTLVTVSS
VL: QSVLTQPPSASGTPGQRVTISCTGSSSNIGAGYDVHWYQQLPGTAPKLLIYDNNNRPSGVPDRFSGSKSGTSASLAISGLRSEDEADYYCQSYDSSLSAWLFGGGTKLTVLG
Consider B1, for which the “affinity and specificity of binding to ICAM-1” value with ICAM-1 was “binds with high affinity and specificity to ICAM-1”. For the same molecule, in data set [1], the “steady state trough serum concentration at IC10 inhibition of tumour growth” value was 0.028 µg/mL. The “ARH-77 ICAM-1 epitopes occupied by antibody in vitro” value in data set [2] (at 28 ng/mL BI-AB) is recorded as “approximately 30%”. The “binding to ARH-77 myeloma cells” value in [2] (in vitro) is “binds to ARH-77 myeloma cells in a dose-dependent manner”. In addition, the anti-lymphoma activity entry with B-cell lymphoma is reported as “significant anti-lymphoma activity”. Also, the “survival compared with control-treated mice” value in data set [3] (2 mg/kg intravenous Days 7, 10, 14, 17 (or start 1 day) after tumour cell inoculation) is “confers protection against advanced experimental multiple myeloma; also recorded: significantly prolonged survival”. The “benchmark against Bortezomib” value in data set [3] (BI-AB 2 mg/kg vs bortezomib (Velcade) 0.5 mg/kg) is reported as “superior”. In [3] (after 190 days, when the experiment was terminated), the “treated mice still alive” value was determined as 25%. Besides, in [4], the “systemic exposure versus dose” value is reported as “increased roughly in proportion to the dose”, the “systemic exposure versus gender” value is recorded as “without gender deviations” and the “volumes of distribution versus dose” value is on record as “no dose-dependency”. Moreover, the “anti-myeloma activity (tumour growth)” value in [5] is “significant and ICAM-1-dependent anti-myeloma activity”. Besides, in the data set with OPM-2 myeloma cells, the “effect on tumour growth” value is recorded as “no effect on tumour growth; also recorded: did not affect tumour growth”. Also, in the data set with ARH-77 myeloma cells (SCID/ARH-77, prophylactic and established xenograft models, Rituximab e.g. 20 mg/kg), the “efficacy and potency compared with Rituximab (reducing tumour growth, prolonging survival)” value is “more efficacious and potent compared with Rituximab; also recorded: comparable or improved activity”. Moreover, the “in vivo anti-myeloma efficacy (tumour volume, survival)” value in the data set with ARH-77 myeloma cells (SCID/ARH-77 xenograft, twice-weekly intraperitoneal, doses 0.016, 0.16, 1.6 (16) mg/kg) is “significant in vivo anti-myeloma efficacy and potency”. Moreover, in the data set on ARH-77 myeloma cells (early antibody administration, twice-weekly dosing regimen), the “MABEL/IC10 dose (10% inhibition of tumour growth)” value worked out at 4 µg/kg. Moreover, the “systemic exposure versus sex” value in data set [6] (single IV bolus) is on record as “generally independent of sex”. In addition, in data set [6] (setting [7]), the “clearance and volumes of distribution (Vz and Vss) versus dose” value is “dose independent”; the “systemic exposure versus dose” value was “increased roughly in proportion to dose”; the “time of maximum serum concentrations” value is “within the first hour”.
